Measurements as given in PMC9861184.

Tested on: T1, SigW (ECF sigma factor, GST fusion) (Pseudomonas donghuensis HYS), ORF:b11b1795
T1 sequence: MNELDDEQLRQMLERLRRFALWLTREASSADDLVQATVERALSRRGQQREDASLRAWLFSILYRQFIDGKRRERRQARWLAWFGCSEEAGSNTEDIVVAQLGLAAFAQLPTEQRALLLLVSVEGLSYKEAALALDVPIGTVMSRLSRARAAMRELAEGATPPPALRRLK
Test: EMSA
Conditions: EMSA: 0.3 uM DNA in 20 uL, 10 mM Tris-HCl pH 7.5, 150 mM NaCl, 2 mM DTT, 2 mM EDTA, 10% glycerol, 30 C 40 min; 6.8% native PAGE in 0.5x TBE on ice, EB stain

| Sequence | binding |
| --- | --- |
| CCCTACCGTATTTGAACGGCTGGCCAGCCCTCTGTGTCCTTGCACGCCCTTGAGTTAGGGCCTGCATGCCCCATTTGCGGGCAGAGAACACTGCCGGTTCAAAGACATTCAGGGAAAAACCTCCAGGATCGGAGCCCCGTGGTCTGGCTGGCAGTCTTTCTCACAAATGCGATCAGGTAAATTCTGGAGTCATTCGTGAAACAAGCTCAACTTCCGCGCAAGATACCCACACAAGCCCGCTCGAGG (double strand) [orf12 promoter] | binds |
| CGAACTCATGGCCTGCCCCCGGGAACGGGCGCAGGGGCACGGTAAAACAGGTACAGGCGCATGGCTTCAGAACTCCGGGTAATTGAGGTACCCGGCAAGTCTATGGAGGCCGATTACTGACGAAAACTGACATATTCGCAGCTTTATGCTGCATGAGACGCAACTATACGATCAGGTATATATAAGCGCTCAAAAGCATC (double strand) [orf2-orf5 promoter] | binds more weakly |
| GCCCGCGTATTTCCTGAGCTCAACCTGAGCAATCACGCAGCGCCGCACTCGGTTATTTGAATGCGAGTAGCCATAGCACGGCAACTTGCCTAGGATAAGAAACAAATTGAAACGTTGTTAAAAGTGACAACTACCCGCTCAACGATGTTTCAACTTTCTTGCAATCTTCAGCCCCACAAATCAATAAAAGGACGTTCACGATGAGCAACAAGGGTTTTGACACCG (double strand) [orf9-orf6 promoter] | binds |
| TCAATGGCGATCAGTACCGAGCTGTACATGGTGACGGGACCCATTCTGAATACAAAGAGCAGGCATTCTTGAAAAAGCGTGCGGCCGGGTAAATGGTGCGCGGTGCAATGACTAGTTGCGCAGAATGCAAGGGCTGGAAAACCTGCAGAAACTGGTAAGATTGCAGCGGATTCACTGAAATACATGAATGGATGCTTACCATGCACTTTCCGGATA (double strand) [orf1 promoter] | binds |
